Source: publication PMC2925389

Assays:
[1] = target: T1, yPolη truncated (catalytic core) (Saccharomyces cerevisiae, UniProt Q04049 1-513); experiment: EMSA; koff 0.008 ± 0.001 s-1 (DNA trap); 23°C, buffer A (composition not in material; without BSA for fluorescence); EMSA 10 nM DNA, 10-450 nM protein, 20 min, 4.5% native gel, 40 mM Tris in running bu
T1 sequence: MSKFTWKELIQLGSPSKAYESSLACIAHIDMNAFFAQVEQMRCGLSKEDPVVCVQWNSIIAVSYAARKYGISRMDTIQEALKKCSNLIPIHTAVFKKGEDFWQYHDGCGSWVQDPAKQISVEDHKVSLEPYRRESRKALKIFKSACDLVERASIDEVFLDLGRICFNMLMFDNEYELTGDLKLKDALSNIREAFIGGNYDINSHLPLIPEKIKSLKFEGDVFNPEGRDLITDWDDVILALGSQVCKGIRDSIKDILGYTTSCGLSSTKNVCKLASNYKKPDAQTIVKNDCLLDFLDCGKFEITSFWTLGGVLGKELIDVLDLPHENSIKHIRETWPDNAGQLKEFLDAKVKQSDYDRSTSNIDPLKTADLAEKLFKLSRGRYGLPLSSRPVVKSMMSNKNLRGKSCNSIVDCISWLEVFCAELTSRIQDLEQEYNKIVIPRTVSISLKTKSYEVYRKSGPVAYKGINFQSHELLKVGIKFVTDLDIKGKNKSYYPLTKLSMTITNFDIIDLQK

yPolη full-length = target: T2, yPolη full-length (Saccharomyces cerevisiae, UniProt Q04049 1-632); experiment: EMSA; koff 0.0041 ± 0.0008 s-1 (DNA trap); 23°C, buffer A (composition not in material; without BSA for fluorescence); EMSA 10 nM DNA, 10-450 nM protein, 20 min, 4.5% native gel, 40 mM Tris in running bu
T2 sequence: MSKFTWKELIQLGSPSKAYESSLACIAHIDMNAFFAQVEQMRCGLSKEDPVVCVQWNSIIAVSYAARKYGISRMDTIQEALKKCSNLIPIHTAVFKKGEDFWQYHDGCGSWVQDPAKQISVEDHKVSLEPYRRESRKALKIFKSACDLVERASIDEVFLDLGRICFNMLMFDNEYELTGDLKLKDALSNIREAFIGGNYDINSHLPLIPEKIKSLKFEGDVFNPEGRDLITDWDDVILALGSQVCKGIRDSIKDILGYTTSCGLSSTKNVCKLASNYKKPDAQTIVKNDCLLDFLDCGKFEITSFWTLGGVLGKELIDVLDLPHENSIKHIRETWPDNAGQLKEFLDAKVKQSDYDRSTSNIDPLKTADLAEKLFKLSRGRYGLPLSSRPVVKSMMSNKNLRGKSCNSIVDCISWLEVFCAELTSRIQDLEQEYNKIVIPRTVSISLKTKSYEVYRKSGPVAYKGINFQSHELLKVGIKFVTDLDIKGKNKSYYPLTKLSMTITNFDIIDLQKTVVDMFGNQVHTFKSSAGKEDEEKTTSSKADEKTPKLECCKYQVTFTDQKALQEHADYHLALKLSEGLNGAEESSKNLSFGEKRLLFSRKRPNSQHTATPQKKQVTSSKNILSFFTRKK

B1: D-1 21/41-mer (dsDNA)
DNA 1: CGCAGCCGTCCAACCAACTCA
DNA 2: GGACGGCATTGGATCGACGATGAGTTGGTTGGACGGCTGCG
- Kd [1]: 34 ± 3 nM
- Kd (yPolη full-length): 16 ± 1 nM
